Source: article PMC1933402 (The EMBO Journal, 2007)

T1: His-tagged WT APPL1 (5−419) (human, UniProt Q9UKG1 5-419)
T1 sequence (looked up): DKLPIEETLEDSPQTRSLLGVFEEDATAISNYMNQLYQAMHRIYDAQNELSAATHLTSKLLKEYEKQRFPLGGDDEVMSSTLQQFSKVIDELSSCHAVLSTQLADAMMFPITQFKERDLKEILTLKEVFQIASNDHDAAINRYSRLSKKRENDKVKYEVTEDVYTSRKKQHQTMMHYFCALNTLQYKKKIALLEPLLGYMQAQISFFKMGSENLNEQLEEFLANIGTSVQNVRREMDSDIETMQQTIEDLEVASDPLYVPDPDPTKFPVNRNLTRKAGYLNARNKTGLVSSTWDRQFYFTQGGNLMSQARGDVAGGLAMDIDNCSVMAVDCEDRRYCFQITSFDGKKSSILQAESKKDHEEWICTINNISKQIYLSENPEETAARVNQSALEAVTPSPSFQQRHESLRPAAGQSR


Legend:
[1] = target: T1, His-tagged WT APPL1 (5−419); assay: SPR
[2] = target: the molecule itself; assay: AUC

| Binder | Kd [1] [nM] | koff [1] [s⁻¹] | kon [1] [M⁻¹ s⁻¹] | Kd [2] [nM] |
| --- | --- | --- | --- | --- |
| full-length Rab5-Q79L coupled to the SPR biosensor chip (natural protein, human, UniProt P20339-1 1-215, looked up) MASRGATRPNGPNTGNKICQFKLVLLGESAVGKSSLVLRFVKGQFHEFQESTIGAAFLTQTVCLDDTTVKFEIWDTAGLERYHSLAPMYYRGAQAAIVVYDITNEESFARAKNWVKELQRQASPNIVIALSGNKADLANKRAVDFQEAQSYADDNSLLFMETSAKTSMNVNEIFMAIAKKLPKNEPQNPGANSARGRGVDLTEPTQPTRNQCCSN | 900 ± 700 | 0.0012 | 1300 | – |
| APPL1 BAR domain (residues 5−265), His tag removed (domain or fragment, human) GSHMDKLPIEETLEDSPQTRSLLGVFEEDATAISNYMNQLYQAMHRIYDAQNELSAATHLTSKLLKEYEKQRFPLGGDDEVMSSTLQQFSKVIDELSSCHAVLSTQLADAMMFPITQFKERDLKEILTLKEVFQIASNDHDAAINRYSRLSKKRENDKVKYEVTEDVYTSRKKQHQTMMHYFCALNTLQYKKKIALLEPLLGYMQAQISFFKMGSENLNEQLEEFLANIGTSVQNVRREMDSDIETMQQTIEDLEVASDPLYVPD | – | – | – | 130 |
